Assay results taken from patent publication US20210332428A1.

Experiments:
[1] = biological target: human β2-adrenergic receptor (ADRB2) in nanodiscs, GRK2-phosphorylated, DNA barcoded (human) (UniProt P07550); assay: polony co-localization, β-arr2 titration on isoproterenol-saturated phosphorylated ADRB2, one-site-specific fit
[2] = biological target: human β2-adrenergic receptor (ADRB2) in nanodiscs, GRK2-phosphorylated, DNA barcoded (human) (UniProt P07550); assay: polony co-localization at varied β-arr2 concentrations; reference is ADRB2 without GRK2-mediated phosphorylation

β-arr2-TolA-HaloTag (β-arrestin-2, DNA barcoded) (from UniProt P19934 131-225)
Kd [1]: 0.95 nM | fold increase of the average co-localization ratios after the phosphorylation [2]: 3 to 11 fold
